Test [1] concerns the target Atto532-labelled HP1α (human). As to the kind of experiment: smTIRFM (fluorescence intensities of individual binding events); as a10, in the presence of 1 μM peptide P3.
Test [2] has as its target H3K9me3 (100%) chromatin array (12 nucleosomes) (human) (UniProt P68431). Briefly: smTIRFM (single-molecule total internal reflection fluorescence microscopy); as a3, in the presence of 1 μM peptide P3.
Test [3] has the same target. Briefly: smTIRFM (single-molecule total internal reflection fluorescence microscopy); as a3, with the mutated peptide P4 added (concentration not given).
The target is the same in test [4]. As to the kind of experiment: smTIRFM (single-molecule total internal reflection fluorescence microscopy); as a3, with 50 nM unlabelled HP1α added to 1 nM Atto532-labelled HP1α.
Test [5] shares this target. As to the kind of experiment: smTIRFM (single-molecule total internal reflection fluorescence microscopy); as a3, with 250 nM unlabelled HP1α added to 1 nM Atto532-labelled HP1α.
Test [6] shares this target. Briefly: smTIRFM (single-molecule total internal reflection fluorescence microscopy); as a3, with 1000 nM unlabelled HP1α added to 1 nM Atto532-labelled HP1α.
Test [7] deals with Atto532-labelled HP1α (human). Briefly: smTIRFM (fluorescence intensities of individual binding events); 1 nM Atto532-labelled HP1α on immobilised chromatin arrays; share of events with the intensity of a dimer.
Test [8] concerns the target H3K9me0 (unmodified) chromatin array (12 nucleosomes) (human) (UniProt P68431). Briefly: smTIRFM (single-molecule total internal reflection fluorescence microscopy); chromatin arrays or mononucleosomes immobilised by biotin-neutravidin on PEG-passivated coverslips; 1 nM Atto532-labelled HP1α or 0.5 nM HP1αcdm in 50 mM HEPES, 130 mM KCl, 10% glycerol, 2 mM trolox, 0.005% tween-20, glucose and oxygen removal system; dwell-time histograms; apparent KD for a nucleosome in an array, calculated from the fast phase.

In test [9] the target is H3K9me3 (100%) chromatin array (12 nucleosomes) (human) (UniProt P68431). The description is as above.
Test [10] has as its target H3K9me3 (25%) chromatin array (12 nucleosomes) (human) (UniProt P68431). The test is described as above.
In test [11] the target is H3K9me3 (50%) chromatin array (12 nucleosomes) (human) (UniProt P68431). Described as above.
The target of test [12] is H3K9me3 (75%) chromatin array (12 nucleosomes) (human) (UniProt P68431). The test is described as above.
The target in test [13] is H3K9me3 mononucleosome (human) (UniProt P68431). The description is as above.
The target of test [14] is H3K9me3 (100%) chromatin array (12 nucleosomes) (human) (UniProt P68431). Described as above. This is another data set of the same source.
The target is the same in test [15]. The test is described as above. This is another data set of the same source.
For test [16], the target named is Atto532-labelled HP1α (human). Briefly: MST; H3K9me3 1–14 peptide serially diluted (0.1–100 μM) and mixed 1:1 with a 300 nM stock of Atto532-labelled HP1α or HP1αcdm; 150 mM NaCl, 50 mM HEPES, 0.05% Tween, 1 mM DTT, pH 7.5; quadratic binding equation.
For test [17], the target named is HP1α (I163E) (human) (UniProt P45973). The test is described as above.
The target of test [18] is HP1αcdm (covalently dimerized HP1α, Atto532-labelled) (human) (UniProt P45973). The test is described as above.
Test [19] addresses H3K9me3 (100%) chromatin array (12 nucleosomes) (human) (UniProt P68431). As to the kind of experiment: smTIRFM (single-molecule total internal reflection fluorescence microscopy); chromatin arrays or mononucleosomes immobilised by biotin-neutravidin on PEG-passivated coverslips; 1 nM Atto532-labelled HP1α or 0.5 nM HP1αcdm in 50 mM HEPES, 130 mM KCl, 10% glycerol, 2 mM trolox, 0.005% tween-20, glucose and oxygen removal system; dwell-time histograms; apparent KD for a nucleosome in an array, calculated from the fast phase. This is another data set of the same source.

Where only a bound is given, the exact number is not on record here.

Chain of HP1α (W40A) (P45973 whole entry, stated change not applied): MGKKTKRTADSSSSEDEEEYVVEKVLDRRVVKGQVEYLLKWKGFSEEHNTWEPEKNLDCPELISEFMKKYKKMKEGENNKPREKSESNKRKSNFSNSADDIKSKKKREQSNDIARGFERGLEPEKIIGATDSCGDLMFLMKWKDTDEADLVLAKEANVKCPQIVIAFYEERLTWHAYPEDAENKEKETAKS

Usually kon stands for a measure of how fast the partners come together. Regarding Atto532-labelled HP1α (natural protein), in test [1], the percent dimeric HP1α worked out at 42%. In addition, the Kd is 0.38 µM in test [2]; 0.84 µM in test [3]; 1.48 µM in test [4]; 3.72 µM in [5]; 3.11 µM in test [6]; 1.16 µM in test [9]. Besides, the Kd in test [10] is 6.06 µM; in test [11], 3.4 µM; in [12] it was 3.23 µM. Moreover, the kon in test [2] is 7.94e+06 M⁻¹ s⁻¹; in test [3] it was 4.25e+06 M⁻¹ s⁻¹; in test [4] it was 3.55e+06 M⁻¹ s⁻¹; in test [5], 2.07e+06 M⁻¹ s⁻¹; in [6] it was 2.92e+06 M⁻¹ s⁻¹; in [9], 3.64e+06 M⁻¹ s⁻¹. Also, the kon in test [10] is 1.1e+06 M⁻¹ s⁻¹; in test [11], 1.73e+06 M⁻¹ s⁻¹; in [12], 1.63e+06 M⁻¹ s⁻¹; in test [15], 3.58e+06 M⁻¹ s⁻¹. The λon (apparent association time constant) in test [2] was 10.5 s; in test [3] it was 19.6 s; in test [4], 23.8 s; in test [5] it was 43.3 s; in test [6], 29.3 s; in test [9] it was 22.9 s. Moreover, the λon (apparent association time constant) in [10] was 75.8 s; in test [11], 48.2 s; in test [12] it was 51 s. The τoff,1 (fast phase of dissociation) was 0.33 s in test [2]; 0.28 s in test [3]; 0.19 s in test [4]; 0.13 s in [5]; 0.11 s in [6]; 0.08 s in test [8]. The τoff,1 (fast phase of dissociation) in [9] was 0.25 s; in test [10] it was 0.15 s; in [11], 0.17 s; in test [12] it was 0.19 s; in test [13], 0.13 s. For the same substance, the τoff,2 (slow phase of dissociation) is 4.8 s in test [2]; 4.45 s in [3]; 3.97 s in test [4]; 3.93 s in [5]; 2.75 s in test [6]; 3.7 s in [8]. For the same substance, the τoff,2 (slow phase of dissociation) in [9] was 2.26 s; in test [10], 4.57 s; in test [11], 4.09 s; in test [12] it was 4.03 s; in test [13] it was 1.18 s; in test [14], 2.3 s. In addition, in [7], the percent of binding events attributed to dimeric protein was found to be 17%.

In the case of “H3K9me3 1–14 peptide (from UniProt P68431 2-15)”, the Kd in [16] came out at 5.36 µM; in [17] it was 9.4 µM; in [18], 12.5 µM.

As for “HP1α (I163E) (from UniProt P45973 1-191) (natural protein)”, in [9], the λon (apparent association time constant) was over 100 s, the τoff,1 (fast phase of dissociation) was 0.23 s and the τoff,2 (slow phase of dissociation) is 4.11 s.

As for “HP1α (W40A) (from UniProt P45973 1-191) (natural protein)”, in [9], the τoff,1 (fast phase of dissociation) was 0.1 s and the τoff,2 (slow phase of dissociation) was 0.56 s.

In the case of “HP1αcdm (covalently dimerized HP1α, Atto532-labelled) (from UniProt P45973 1-177)”, in test [9], the Kd was 0.13 µM, the kon is 2.24e+07 M⁻¹ s⁻¹, the λon (apparent association time constant) is 7.45 s and the τoff,1 (fast phase of dissociation) was 0.33 s. Moreover, the τoff,2 (slow phase of dissociation) in test [9] is 3.4 s. Moreover, the Kd in test [19] is 0.14 µM.

Source of the values: paper PMC4557296.
